Measured values: patent US20230349919A1

Assays:
[1] = target: Ole e 1 (olive) (UniProt P19963); test: barcoded antigen sequencing of single IgE PCs with trapped IgE
[2] = target: Ole e 1 (olive) (UniProt P19963); test: barcoded antigen sequencing of single IgE PCs with trapped IgE [cont.]
[3] = target: Der p 2 (house dust mite) (UniProt P49278); test: barcoded antigen sequencing of single IgE PCs with trapped IgE
[4] = target: Der p 1 (house dust mite) (UniProt P08176); test: as above
[5] = target: Der f 1 (house dust mite) (UniProt P16311); test: as above
Chain of Der f 1 (house dust mite) (P16311 99-321 limits assumed): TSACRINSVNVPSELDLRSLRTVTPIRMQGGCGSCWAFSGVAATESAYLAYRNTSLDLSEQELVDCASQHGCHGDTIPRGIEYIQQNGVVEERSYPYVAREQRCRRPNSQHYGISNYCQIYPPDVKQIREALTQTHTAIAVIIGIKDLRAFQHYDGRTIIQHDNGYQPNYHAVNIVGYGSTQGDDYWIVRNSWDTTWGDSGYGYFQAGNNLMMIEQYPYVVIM

[6] = target: Der p 2 (house dust mite) (UniProt P49278); test: antigen specificity score against Ole e 1 from barcode counts of single IgE PCs [cont.]
[7] = target: Der p 1 (house dust mite) (UniProt P08176); test: as above
[8] = target: Der f 1 (house dust mite) (UniProt P16311); test: as above
[9] = target: Der p 2 (house dust mite) (UniProt P49278); test: barcoded antigen sequencing of single IgE PCs with trapped IgE [cont.]
[10] = target: Der p 1 (house dust mite) (UniProt P08176); test: as above
[11] = target: Der f 1 (house dust mite) (UniProt P16311); test: as above
[12] = target: Der p 1 (house dust mite) (UniProt P08176); test: barcode rank score against control Ole e 1
[13] = target: Der f 1 (house dust mite) (UniProt P16311); test: barcode rank score against control Ole e 1
[14] = target: Der p 1 (house dust mite) (UniProt P08176); test: centered log-ratio of barcode count
[15] = target: Der f 1 (house dust mite) (UniProt P16311); test: centered log-ratio of barcode count
[16] = target: Der p 1 (house dust mite) (UniProt P08176); test: barcoded-antigen count on source cell
[17] = target: Der f 1 (house dust mite) (UniProt P16311); test: barcoded-antigen count on source cell

Chain of Ole e 1 (olive) (P19963 whole entry): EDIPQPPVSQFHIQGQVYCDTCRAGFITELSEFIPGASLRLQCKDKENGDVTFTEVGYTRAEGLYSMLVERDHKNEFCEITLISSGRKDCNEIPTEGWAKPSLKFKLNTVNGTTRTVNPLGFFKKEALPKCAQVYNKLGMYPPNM
Chain of Der p 1 (house dust mite) (P08176 99-320 limits assumed): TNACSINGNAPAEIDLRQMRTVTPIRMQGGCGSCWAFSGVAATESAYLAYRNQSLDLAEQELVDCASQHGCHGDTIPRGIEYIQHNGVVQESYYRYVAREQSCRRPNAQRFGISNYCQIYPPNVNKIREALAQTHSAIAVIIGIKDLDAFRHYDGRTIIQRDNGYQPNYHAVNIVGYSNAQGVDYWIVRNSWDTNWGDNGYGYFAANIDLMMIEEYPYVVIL
Chain of Der p 2 (house dust mite) (P49278 18-146 limits assumed): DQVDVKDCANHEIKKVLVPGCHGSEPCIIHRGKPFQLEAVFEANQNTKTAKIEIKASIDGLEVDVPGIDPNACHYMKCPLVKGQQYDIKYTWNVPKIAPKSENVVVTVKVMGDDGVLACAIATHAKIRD

Row | Binder | Raw Antigen Barcode Count [1] | Normalized Barcode Count [2] | Raw Antigen Barcode Count [3] | Raw Antigen Barcode Count [4] | Raw Antigen Barcode Count [5] | Antigen Score [6] | Antigen Score [7] | Antigen Score [8] | Normalized Barcode Count [9] | Normalized Barcode Count [10] | Normalized Barcode Count [11] | further results
1 | Candidate ID 16 (antibody, V domains shown) VH: EVHLQQSGPDLVKPGASVMISCQASGYSFTAYYINWVKQSPEKSLEWIGEINPGSGGVIYNRKFEAKATLIVDKSSNTAFMLLTRLTSEDSAIYYCARKGFYQFDYWGQGTTLTVSS VL: SVVMTQIPKFLVVSAGDRVTITCKASQSVNDGVFWYQQKTGQSPKLVIYHTSNRYTGVSDRFTGSGYGTEFTFTISAVQSEDLAIYFCQQDYTSPLTFGGGTRLEIK | 3 | 0.603 |  |  |  |  |  |  |  |  |  | 
2 | Candidate ID 21 (antibody, V domains shown) VH: QVQLQQSGPELVKPGASVKISCKAPGNAFSYSWMNWVKQRPGKGLEWVGRIYPGDGDTNYNGKFMGKATLTADKSSNTAYIQLSSLTSEDSAVYFCARSGGGTLYWYFDVWGTGTTVTVSS VL: DIVMTQSPSSLALSVGQKVTMNCRSSQSLLNSFNQKNYLAWFQQKPGQSPRLLIYFASTRESGVPDRFIGSGSGTDFTLTISSVQAEDLADYFCQQHYNTPLTFGAGTTLELK | 4 | 0.826 |  |  |  |  |  |  |  |  |  | 
3 | Candidate ID 7 (antibody, V domains shown) VH: QVLLKESGPGLVAPSQSLSITCTVSGFSLTSYGVSWVRQPPGKGLEWLGVIWGDGNTDYHSALISRLSIRKDNSKSQVFLKLNSLQTDDTATYYCAIGSPFAYWGQGTLVTVSA VL: DVLMTQTPLSLPVSLGDQVSISCRSSQNIVHSTGNTYLEWYLQKPGQSPKLLIFKVSNRLSGVPDRFSGSGSGTDFTLNISRVEAADLGIYSCFQGSHVPFTFGSGTKLEIK | 0 | -1.13 | 22 | 29 | 32 | 0.837 | 0.89 | 0.97 | 0.655 | 0.862 | 1.18 | 
4 | Candidate ID 9 (antibody, V domains shown) VH: EVQLQQSGPELVKPGASVKISCKASGYTFTDYYMNWVKQSHGKSLEWIGDINPNNGGTSYNQKFKGKATLTVDKSSSTAYMELRSLTSEDSAVYYCAYGPPRGPPWFAYWGQGTLVTVSA VL: DIVLTQSPASLAVSLGQRATISCRASKSVSTSGYSYMHWYQQKPGQPPKLLIYLASNLESGVPARFSGSGSGTDFTLNIHPVEEEDAATYYCQHSRELPWTFGGGTKLEIK | 1 | 0.029 | 46 | 16 | 15 | 0.858 | 0.775 | 0.765 | 1.62 | 0.981 | 0.82 | 
5 | Candidate ID 13 (antibody, V domains shown) VH: QAYLQQSGAELVRPGASVKMSCKASGYTFISYNMHWVKQTRRQGLEWIGAIYPGNGDTSYNQKFKGKATLTVDKSSSTAYMQLSSLTSEDSAVYFCARWDYYGSSYGAYWGQGTLVTVSA VL: DIQMTQSPASLSVSVGETVTITCRASENIYSNLAWYQQKQGKSPQLLVYAATNLADGVPSRFSGSGSGTQYSLKINSLQSEDFGSYYCQHFWGTPWTFGGGTKLEIK | 1 | -0.434 |  |  |  |  |  |  |  |  |  | 
6 | IgE mAb 13_2 (antibody, V domains shown) VH: EVQLQQSGPELVKPGASVKISCKASGYTFTDYYMNWVKQSHGKSLEWIGDINPNNGGTSYNQKFKGKATLTVDKSSSTAYMELRSLTSEDSAVYYCAYGPPRGPPWFAYWGQGTLVTVSA VL: DIVLTQSPASLAVSLGQRATISCRASKSVSTSGYSYMHWYQQKPGQPPKLLIYLASNLESGVPARFSGSGSGTDFTLNIHPVEEEDAATYYCQHSRELPWTFGGGTKLEIK |  |  |  |  |  |  |  |  |  |  |  | Derp1 ab rank [12]: 0.775; Derf1 ab rank [13]: 0.765; Derp1 ab clr [14]: 0.981; Derf1 ab clr [15]: 0.82; Derp1 ab raw [16]: 16 counts; Derf1 ab raw [17]: 15 counts
